The assay concerns the target MukB, full length, wild type (E. coli) (UniProt P22523). As to the kind of experiment: fluorescence correlation spectroscopy.

This is an account of results in paper doi:10.1101/2021.03.03.433707.

Chain of MukB, full length, wild type (E. coli) (P22523 whole entry): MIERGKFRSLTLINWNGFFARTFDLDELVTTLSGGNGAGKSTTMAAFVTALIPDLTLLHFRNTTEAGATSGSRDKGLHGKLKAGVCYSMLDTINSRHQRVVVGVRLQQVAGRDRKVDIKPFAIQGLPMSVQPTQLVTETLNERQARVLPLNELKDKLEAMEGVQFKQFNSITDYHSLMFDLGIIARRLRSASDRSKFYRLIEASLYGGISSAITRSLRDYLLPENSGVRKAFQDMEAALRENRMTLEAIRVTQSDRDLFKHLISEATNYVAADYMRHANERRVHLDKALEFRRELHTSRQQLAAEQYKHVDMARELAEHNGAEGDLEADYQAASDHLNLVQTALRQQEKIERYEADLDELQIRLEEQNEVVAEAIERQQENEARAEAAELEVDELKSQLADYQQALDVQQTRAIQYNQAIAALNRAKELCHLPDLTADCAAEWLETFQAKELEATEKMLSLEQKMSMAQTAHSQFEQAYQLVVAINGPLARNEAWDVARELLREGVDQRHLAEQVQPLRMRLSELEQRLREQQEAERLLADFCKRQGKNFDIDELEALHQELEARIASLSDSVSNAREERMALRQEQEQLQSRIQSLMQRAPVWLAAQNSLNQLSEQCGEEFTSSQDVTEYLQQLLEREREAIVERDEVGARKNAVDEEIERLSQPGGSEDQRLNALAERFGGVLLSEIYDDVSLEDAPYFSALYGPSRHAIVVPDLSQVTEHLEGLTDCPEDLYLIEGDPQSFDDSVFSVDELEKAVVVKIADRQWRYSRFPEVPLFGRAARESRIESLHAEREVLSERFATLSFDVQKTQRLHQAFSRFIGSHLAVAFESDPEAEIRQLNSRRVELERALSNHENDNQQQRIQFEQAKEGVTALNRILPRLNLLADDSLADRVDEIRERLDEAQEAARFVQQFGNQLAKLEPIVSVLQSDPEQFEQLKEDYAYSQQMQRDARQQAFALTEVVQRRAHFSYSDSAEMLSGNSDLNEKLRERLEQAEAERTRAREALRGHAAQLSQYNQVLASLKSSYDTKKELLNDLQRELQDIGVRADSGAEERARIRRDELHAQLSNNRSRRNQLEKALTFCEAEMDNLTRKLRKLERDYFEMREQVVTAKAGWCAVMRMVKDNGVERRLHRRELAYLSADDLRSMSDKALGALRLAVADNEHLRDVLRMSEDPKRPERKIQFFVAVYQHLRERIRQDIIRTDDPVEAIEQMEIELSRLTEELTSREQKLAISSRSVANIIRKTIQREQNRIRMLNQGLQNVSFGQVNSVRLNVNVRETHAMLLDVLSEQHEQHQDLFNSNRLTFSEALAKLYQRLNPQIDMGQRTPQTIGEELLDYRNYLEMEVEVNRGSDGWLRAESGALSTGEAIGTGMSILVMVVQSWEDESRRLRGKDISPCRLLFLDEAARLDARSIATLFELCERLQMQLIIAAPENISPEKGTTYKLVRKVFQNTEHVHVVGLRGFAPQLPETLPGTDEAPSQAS
Chain of MBP-ParC^CTD (ParC C-terminal domain with N-terminal MBP fusion) (domain or fragment) (P0AFI2 whole entry, the tested form may be a part): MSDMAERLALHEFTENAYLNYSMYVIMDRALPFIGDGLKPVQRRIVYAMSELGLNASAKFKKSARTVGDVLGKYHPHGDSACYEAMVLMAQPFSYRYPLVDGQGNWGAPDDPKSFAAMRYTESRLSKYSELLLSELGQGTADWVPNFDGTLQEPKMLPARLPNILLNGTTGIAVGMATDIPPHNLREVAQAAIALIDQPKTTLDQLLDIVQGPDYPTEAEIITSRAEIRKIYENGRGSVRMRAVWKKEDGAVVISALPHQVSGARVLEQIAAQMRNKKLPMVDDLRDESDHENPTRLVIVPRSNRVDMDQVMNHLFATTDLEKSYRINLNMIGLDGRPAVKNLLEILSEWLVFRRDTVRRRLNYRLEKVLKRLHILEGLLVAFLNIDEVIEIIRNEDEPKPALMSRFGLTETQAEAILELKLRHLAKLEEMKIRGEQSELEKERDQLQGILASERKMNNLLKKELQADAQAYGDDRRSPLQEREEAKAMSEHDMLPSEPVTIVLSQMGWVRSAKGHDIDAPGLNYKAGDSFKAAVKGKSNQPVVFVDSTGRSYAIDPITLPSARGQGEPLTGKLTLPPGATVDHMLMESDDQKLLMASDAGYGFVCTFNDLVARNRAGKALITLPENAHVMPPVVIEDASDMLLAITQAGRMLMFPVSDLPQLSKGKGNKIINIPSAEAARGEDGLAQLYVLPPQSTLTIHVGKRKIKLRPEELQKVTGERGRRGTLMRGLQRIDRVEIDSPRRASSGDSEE

Consider “MBP-ParC^CTD (ParC C-terminal domain with N-terminal MBP fusion) (domain or fragment)”, for which the fold decrease in MatP-Cy3B binding to MukB at a 10-fold excess of competitor worked out at 3 fold.
